Results on 72 sequences are retold here after the supplement of paper PMC10567573.

This series in a line: protein stability index of a GFP-peptide fusion (GPS, HEK-293T) (PSI 1-6); higher = more stable.
Where [1] appears, read: treatment: DMSO, c terminus: a fixed tail appended.
Where [2] appears, read: treatment: MLN4924 1 uM, 8 h, c terminus: a fixed tail appended.
Setting [3] is: treatment: DMSO, c terminus: native.
The mark [4] stands for this setting: treatment: MLN4924 1 uM, 8 h, c terminus: native.

± gives the standard deviation.
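Also: 24-mer peptide tiles fused after GFP, lentivirally expressed, FACS-sorted into six equal bins by GFP/DsRed ratio, decoded by Illumina sequencing, PSI is the read-weighted mean bin number.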

Regarding AAFLALLRFLYSDEVQIGPETVMT [BTBD1], the protein stability index under setting [1] is 2.49 ± 0.78 and the protein stability index under setting [2] worked out at 2.14 ± 0.004.

As to AAHPPLPLLPPAMGTEPAPSAPEA [TBX6], the protein stability index stood at 5.45 ± 0.24 under setting [1] and 5.52 ± 0.21 under setting [2].

As for ACCEFLESQLDPSNCLGIRDFAET [KLHL12], the protein stability index by setting is: under setting [1], 2.79 ± 0.37; under setting [2], 3 ± 0.5. ACRRRDALTGHLRTHSVIKEETNH [IKZF1] had a protein stability index under setting [1] of 4.01 ± 0.76 and a protein stability index under setting [2] of 3.76 ± 0.89.

For the sequence ACYFGHRQVVQDLLKAGAEVNVLN [OSBPL1A], the protein stability index is, setting by setting: under setting [1], 2.46 ± 0.2; under setting [2], 2.6 ± 0.38.

ADMLKQYFRDLPEPLMTNKLSETF [DLC1]: the protein stability index is, setting by setting: under setting [1], 2.71 ± 0.26; under setting [2], 2.86 ± 0.22.

AEDEEMNRMHESMKLFDSICNNKW [GNAI1] registered a protein stability index under setting [1] of 3.97 ± 0.21 and a protein stability index under setting [2] of 4.02 ± 0.22. On the same counts, the results for AEEAGLKNNDLVVAVNGESVETLD [PDZK1] are 5.49 ± 0.2 and 5.51 ± 0.26. In the same order, the values of AEEYDEKTSELLVRKWRVKSALGA [DPCD] are 3.34 ± 0.36 and 4.04 ± 0.29.

Take AEGPNRLLYKDGFSTILHLLLGSP [LPCAT4]: the protein stability index under setting [1] came out at 2.23 ± 0.98 and the protein stability index under setting [2] stood at 2.08 ± 0.29. On the same counts, the results for AEGRVVGRKDITSILRAPAYPLEL [MOSPD3] are 3.27 ± 0.19 and 3.33 ± 0.18.

As for AENSPYLNPQLVQPAKKPLLWSDP [ESRRG], the protein stability index was determined as 3.9 ± 0.25 under setting [1] and 3.81 ± 0.23 under setting [2]. Consider AEPGALGEPGAAAPAMYDDESAID [CEBPD], for which the protein stability index by setting is: under setting [1], 5.6 ± 0.57; under setting [2], 5.77 ± 0.21.

As to AESSVPPVTSIGIDNLGLKLEENL [SLC35F2], the protein stability index by setting is: under setting [1], 4.97 ± 0.2; under setting [2], 5.13 ± 0.13. In the same order, the values of AFAERYAPDKTSTVLTRHSQPATP [PDLIM7] are 4 ± 0.3 and 3.82 ± 0.18. On the same counts, the results for AFHGLSLGLSLTNGLALGPDLNIL [PSD2] are 2.57 ± 0.56 and 2.54 ± 0.5.

With AFLGPDEAFALPDSLLVVLDMDEG [SPSB4], the protein stability index by setting is: under setting [1], 2.45 ± 0.39; under setting [2], 2.6 ± 0.38.

Regarding AFSPIVILTERVSLPFKPFAIILP [MIA2], under setting [2], the protein stability index turned out to be 2.87 ± 0.24. AGSVVAAVQGLNLRSPNNFLSYYR [CCND1] returned a protein stability index under setting [1] of 2.58 ± 0.2 and a protein stability index under setting [2] of 2.61 ± 0.32. AGTAGVGETGSGDQAGGEGKHITV [MYOZ1]: the protein stability index is, setting by setting: under setting [1], 5.51 ± 0.14; under setting [2], 5.05 ± 0.71.

For the sequence AHGADPTHRLKDGSTMLIEAAKGG [ANKRD17], the protein stability index reads like this: under setting [1], 4.7 ± 0.31; under setting [2], 4.91 ± 0.16. On to AHNSNWYITFQSDTDAQQAFILKR [LARP4], for which the protein stability index reads like this: under setting [1], 2.38 ± 0.25; under setting [2], 2.4 ± 0.55. On to AHRERNEFPEDPEFEAVVRQAELA [PI4K2A], for which the protein stability index reads like this: under setting [1], 5.32 ± 0.12; under setting [2], 5.36 ± 0.43. For AHSSSNTIRSGISPNLNVVDGRLT [SASS6], the protein stability index by setting is: under setting [1], 4.16 ± 0.28; under setting [2], 4.31 ± 0.12. For AKEDGKADTKKRHTPRGHAESTSN [SMOC2], the protein stability index reads like this: under setting [1], 5.53 ± 0.25; under setting [2], 5.45 ± 0.35. Consider AKGGSRLCTPEGWFSCQGPFDMDS [DFFB], for which the protein stability index under setting [1] was found to be 3.01 ± 0.3 and the protein stability index under setting [2] is 3.1 ± 0.27. AKMAGIGIREASSGGGGSSSNFHI [KRT15]: the protein stability index runs as follows: under setting [1], 3.16 ± 0.4; under setting [2], 3.14 ± 0.27. Take AKQIMEETYKMEFMYSGVENKQVV [INTS4]: the protein stability index came out at 2.23 ± 0.31 under setting [1] and 2.65 ± 0.61 under setting [2]. In the case of AKRLWKVCVEHHTFFRLLLPEAPP [EPB41L3], the protein stability index by setting is: under setting [1], 2.48 ± 0.88; under setting [2], 2.42 ± 0.76.

As for ALFAQVQRGALPAPDPELAAEMYQ [RSAD1], the protein stability index is, setting by setting: under setting [1], 3.69 ± 0.087; under setting [2], 3.78 ± 0.34. In the same order, the values of ALLALDENFDHNTLALILQIPTQN [PPFIA4] are 2.21 ± 0.47 and 2.17 ± 0.29. As to ALLTGGGSENRNHRLLNMARNNND [RNF180], the protein stability index was 3.7 ± 0.41 under setting [1] and 3.76 ± 0.35 under setting [2]. As to ALPSVMRFCCCVAVIYLGYCFCGW [MCOLN1], the protein stability index reads like this: under setting [1], 2.76 ± 0.59; under setting [2], 2.83 ± 0.31.

Take ALRSHLKSFSMANGLNARMMHGGS [RAB40B]: the protein stability index reads like this: under setting [1], 2.71 ± 0.38; under setting [2], 2.5 ± 0.62.

With ANDGDYWRLLNPGEYVVTAKAEGF [CPXM2], the protein stability index by setting is: under setting [1], 2.81 ± 0.35; under setting [2], 2.87 ± 0.081. With ANMEDLTEVITASEFHPHHCNLFV [PPP2R2C], the protein stability index stood at 2.49 ± 0.3 under setting [1] and 2.41 ± 0.24 under setting [2]. In the same order, the values of ANQKLSEKLAAGALPHINARGPVR [CCDC3] are 3.62 ± 0.43 and 3.86 ± 0.77. APAQRATRGFLRSPSSDLDTDAEG [RETREG3] gave a protein stability index under setting [1] of 5.44 ± 0.13 and a protein stability index under setting [2] of 5.14 ± 0.18. On the same counts, the results for APGTGPAQTELLCCLVKMESLEPD [FANCE] are 3.28 ± 0.23 and 3.39 ± 0.12. In the same order, the values of APTKPHDYRQEQPETFWIQRAPQL [SPAG8] are 3.61 ± 0.11 and 3.73 ± 0.19. Take APVPTHSTVSELSRSPVATATSC [DUSP5]: the protein stability index reads like this: under setting [3], 2.72 ± 0.17; under setting [4], 2.86 ± 0.13.

For AQLQALRQKEVDFCISLLRERFME [INTS3], the protein stability index is 2.61 ± 0.27 under setting [1] and 2.58 ± 0.59 under setting [2]. As to AQNNCPAIMNALIEAGAHMDATNA [FEM1A], the protein stability index by setting is: under setting [1], 4.46 ± 0.23; under setting [2], 4.49 ± 0.079.

For the sequence AQRRRMDEISDHAKVLTLSDDLER [EIF5], the protein stability index was found to be 4.98 ± 0.26 under setting [1] and 5.04 ± 0.22 under setting [2]. In the case of AQSGERECHIVVLTDDDVVDWDEE [BTBD10], the protein stability index was 5.205 ± 0.041 under setting [1] and 5.14 ± 0.28 under setting [2]. Regarding ARELQEALPEAPAPLLPHITATSL [BCL2L13], the protein stability index reads like this: under setting [1], 4.32 ± 0.4; under setting [2], 4.32 ± 0.22. Consider ARFVSSGSGGGYGGGMRVCGFGGG [KRT15], for which the protein stability index is 2.63 ± 0.31 under setting [1] and 2.74 ± 0.25 under setting [2].

Consider ARVNENLARKIASRNEFDRTIAET [SSNA1], for which the protein stability index reads like this: under setting [1], 3.95 ± 0.15; under setting [2], 4.06 ± 0.2. On the same counts, the results for ASHQQQVLPPRQPSALVPSVTEYR [MYBL2] are 4.38 ± 0.28 and 4.37 ± 0.15.

As for ASKMESTIKPRRVEPVCSGLQAQI [CHCHD6], the protein stability index came out at 3.47 ± 0.17 under setting [1] and 3.6 ± 0.24 under setting [2]. For ASLNHLDSHILLCLMGLAETPGCA [DCAF4], the protein stability index is, setting by setting: under setting [1], 3.14 ± 0.58; under setting [2], 2.82 ± 0.34. As for ASQSPKKPPAKDPLADLNIKDFL [SNAP91], the protein stability index under setting [3] came to 4.45 ± 0.29 and the protein stability index under setting [4] amounted to 4.58 ± 0.34. ASSSPVTLRQKTVDWRRVSRLQED [SLA]: the protein stability index came out at 3.9 ± 0.36 under setting [1] and 3.77 ± 0.32 under setting [2].

For ASSVESTLPVLEASSWKKQVSHDF [FBXO34], the protein stability index by setting is: under setting [1], 3.56 ± 0.49; under setting [2], 3.67 ± 0.62. In the case of ASTVLKSVGFQSNEAASLASTGVG [SLC2A12], the protein stability index was determined as 4.16 ± 0.3 under setting [1] and 4.15 ± 0.35 under setting [2].

On to ASVINNMLAEIFCQTGGVEDQEEW [ZBED1], for which the protein stability index by setting is: under setting [1], 3.31 ± 0.31; under setting [2], 3.89 ± 0.33. As to ATLKGPDSHYGTKGLKKVVHETPA [BTBD1], the protein stability index worked out at 4.21 ± 0.34 under setting [1] and 4.543 ± 0.04 under setting [2]. In the same order, the values of ATPRQVPSLQHLCRMSIRRVMPTQ [WSB1] are 3.83 ± 0.23 and 3.77 ± 0.15. On the same counts, the results for ATVVMMTKLEERSRVKCDQYWPSR [PTPRD] are 2.42 ± 0.32 and 2.17 ± 0.38. As for AVAFMPEDITKGTQSLPTASASKF [AUP1], the protein stability index was 4.22 ± 0.18 under setting [1] and 4.3 ± 0.16 under setting [2]. On to AVEAGQEECAKWLLLNNANPNLSN [RIPK4], for which the protein stability index is, setting by setting: under setting [1], 3.82 ± 0.25; under setting [2], 4.26 ± 0.47. On the same counts, the results for AVGVLLLGLVGYYIFRVANHQKDL [DHCR7] are 2.84 ± 0.29 and 2.79 ± 0.53. Take AVLGFPGFSSGRHRWQVDLQLGDG [TRIM15]: the protein stability index runs as follows: under setting [1], 2.18 ± 0.069; under setting [2], 2.22 ± 0.17. AYFPYFKKHNVTAVVRLNKKIYEA [CDC14A]: the protein stability index is, setting by setting: under setting [1], 2.34 ± 0.33; under setting [2], 2.08 ± 0.16.

In turn, AYPFYWAWLPQAKVPFSQEIKDLI [PI4K2A] registered a protein stability index under setting [1] of 2.23 ± 0.32 and a protein stability index under setting [2] of 2.13 ± 0.14. Take CDKHSKLFEEPEDPSNRSFFSEII [PPP2R2C]: the protein stability index under setting [1] was 3.36 ± 0.17 and the protein stability index under setting [2] stood at 3.57 ± 0.2. For the sequence CEYETRLPGNHSTSQEIFRQRFRH [ZNF232], the protein stability index by setting is: under setting [1], 3.48 ± 0.25; under setting [2], 3.4 ± 0.17. Regarding CKACITRWWEDLERDFPCPVCRKT [TRIM39], the protein stability index is, setting by setting: under setting [1], 3.97 ± 0.27; under setting [2], 4.25 ± 0.62. Consider CLDSPGPLDSKENLENPMRRIHSL [CDC25A], for which the protein stability index by setting is: under setting [1], 4.27 ± 0.19; under setting [2], 3.91 ± 0.26.

For CLFSLINGDDMFVTFAAMQAQQGR [MCOLN1], the protein stability index reads like this: under setting [1], 2.97 ± 0.47; under setting [2], 2.74 ± 0.66. On the same counts, the results for CLGSLASKLSRKYVKAKKSIDKDE [FAN1] are 2.7 ± 0.16 and 2.94 ± 0.4. Regarding CLMGLAETPGCATLLPASLFVNSH [DCAF4], the protein stability index under setting [1] is 2.35 ± 0.3 and the protein stability index under setting [2] is 2.35 ± 0.34.
